Results on seven molecules are retold here after patent publication US20150011730A1 (UNIVERSITY OF SOUTH CAROLINA, published 2015).

Assay [1] has as its target T1, CDK4/cyclin D1 (as used in the binding assay) (UniProt P11802 1-303; P24385 1-295).
T1 construct: kept apart from the GST-tagged kinase-assay complex m2; also called CDK4/D1

The target in assay [2] is CDK4/Cyclin D1, full-length recombinant, N-terminal GST tag on both proteins (UniProt P11802 2-303; P24385 1-295). Kind of assay: cell-based or functional assay.
Chain of CDK4/Cyclin D1, full-length recombinant, N-terminal GST tag on both proteins (P11802 2-303, chain 1 of 2): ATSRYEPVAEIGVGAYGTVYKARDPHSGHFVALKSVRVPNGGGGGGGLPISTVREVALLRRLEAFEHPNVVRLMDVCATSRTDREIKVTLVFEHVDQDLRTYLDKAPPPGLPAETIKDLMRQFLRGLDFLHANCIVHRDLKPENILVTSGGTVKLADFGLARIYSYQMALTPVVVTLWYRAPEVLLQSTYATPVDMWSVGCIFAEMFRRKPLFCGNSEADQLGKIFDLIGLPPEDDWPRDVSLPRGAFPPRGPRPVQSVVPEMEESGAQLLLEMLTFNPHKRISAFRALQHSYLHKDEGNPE
Chain of CDK4/Cyclin D1, full-length recombinant, N-terminal GST tag on both proteins (P24385 whole entry, chain 2 of 2): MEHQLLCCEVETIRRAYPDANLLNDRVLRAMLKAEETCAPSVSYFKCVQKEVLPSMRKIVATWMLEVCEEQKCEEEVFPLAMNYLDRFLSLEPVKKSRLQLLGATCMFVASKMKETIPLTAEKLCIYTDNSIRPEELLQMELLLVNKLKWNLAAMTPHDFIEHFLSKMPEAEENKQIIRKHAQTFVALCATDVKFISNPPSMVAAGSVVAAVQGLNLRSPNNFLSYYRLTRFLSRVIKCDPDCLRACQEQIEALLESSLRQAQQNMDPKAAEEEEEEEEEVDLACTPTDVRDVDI
Assay [3] deals with CDK2/Cyclin A2, full-length recombinant, N-terminal GST tag on both proteins (UniProt P24941 1-298; P20248 1-432). Kind of assay: cell-based or functional assay.
Assay [4] concerns the target T1, CDK4/cyclin D1 (as used in the binding …). Nature of the assay: FP binding assay.
Assay [5] has the same target. Nature of the assay: FP binding assay. This is another data set of the same source.
The target in assay [6] is T2, CDK2/cyclin A (as used in the binding assay) (UniProt P24941 1-298; P20248 1-432). Nature of the assay: FP binding assay.
For assay [7], the target named is CDK2/E (UniProt P24941 1-298; P24864 1-410). Nature of the assay: cell-based or functional assay.
The target in assay [8] is T2, CDK2/cyclin A (as used in the binding …). Kind of assay: binding assay.

Non-standard residues stand in square brackets, D forms with d. No end group written: not given here. *: point of attachment. Pyrazole N‑cap, 4‑chlorophenylpyrazole (R1 H, R2 Cl, R3 H, R4 CH3, W N, X N, Y C, Z C) = not defined here; X1 = 1‑(3,5-dichlorophenyl)‑5‑methyl‑1H‑1,2,4‑triazole‑3‑carbonyl, Cc1nc(C(=O)*)nn1-c1cc(Cl)cc(Cl)c1; benzoic acid Scaffold III (R1 H, R2 CHEM-US-00025 C6H13NO) = not defined here; benzoic acid Scaffold III (R1 H, R2 CHEM-US-00026 C5H12N2) = not defined here; Ala(2-furyl) = N[C@@H](Cc1ccco1)C(=O)O Where only a bound is given, the exact number is not on record here.

B1: SCCP 5850 (benzoic acid N-cap-RLIF) (peptide)
peptide: {benzoic acid Scaffold III (R1 H, R2 CHEM-US-00026 C5H12N2)}-RLIF
modifications: reading uncertain; also: cap structure given only by scaffold parameters
As for B1, in assay [1], the “fold enhancement of activity vs unsubstituted benzoic acid” value worked out at 9 fold.

B2: HAKRRLIX5 (peptide)
peptide: HAKRRLIA
HELM: PEPTIDE1{H.A.K.R.R.L.I.[O=C([C@H](CC1CCCC1)N[*:1])[*:2]].[am]}$$$$V2.0; N-terminus assumed
SMILES: CC[C@H](C)[C@H](NC(=O)[C@H](CC(C)C)NC(=O)[C@H](CCCNC(=N)N)NC(=O)[C@H](CCCNC(=N)N)NC(=O)[C@H](CCCCN)NC(=O)[C@H](C)NC(=O)[C@@H](N)Cc1c[nH]cn1)C(=O)N[C@@H](CC1CCCC1)C(N)=O
As for B2, the “IC50, kinase assay” value in assay [2] came to 90 µM; in assay [3], 20 µM.

B3: SCCP 5765 (Pyrazole N-cap ligated to RLIF) (peptide)
peptide: {Pyrazole N‑cap, 4‑chlorophenylpyrazole (R1 H, R2 Cl, R3 H, R4 CH3, W N, X N, Y C, Z C)}-RLIF
modifications: reading uncertain; also: cap structure given only by scaffold parameters
notes: also called 4-chlorophenylpyrazole
The term IC50 denotes the concentration needed to halve the response being measured. Low values mean higher potency, high ones lower potency. On to B3, for which, in assay [4], the “fold less active relative to the triazole N capping group” value is no less than 4 fold. Besides, the values for the IC50 in assay [5] and in assay [6] were 49 µM and 33.7 µM, respectively.

B4: SCCP 5851 (benzoic acid N-cap-RLIF) (peptide)
peptide: {benzoic acid Scaffold III (R1 H, R2 CHEM-US-00025 C6H13NO)}-RLIF
modifications: not fully specified (C-terminus); reading uncertain
As to B4, the “fold enhancement of activity vs unsubstituted benzoic acid” value in assay [1] came to 26 fold.

B5: HAKRRLIX1 (peptide)
peptide: HAKRRLI[Ala(2-furyl)]-NH2
As for B5, the “IC50, kinase assay” value in assay [3] amounted to 6.1 µM; in assay [7], 1.3 µM.

B6: 1-(3,5-dichlorophenyl)-5-methyl-1H-1,2,4-triazole-3-carbonyl-RLIF (peptide)
peptide: X1-RLIF
notes: also called SCCP 5773; 3,5-dichlorophenyl triazole
In the case of B6, the IC50 in assay [8] turned out to be 12 µM; in assay [5], 27 µM; in assay [6], 4 µM.

B7: SCCP 5774 (Triazole N-cap ligated to RLIF) (peptide)
peptide: {Triazole N‑cap, 4‑chlorophenyl triazole (R1 H, R2 Cl, R3 H, R4 CH3, W N, X N, Y N, Z C)}-RLIF
modifications: also: cap structure given only by scaffold parameters
notes: also called 4-chlorophenyl triazole; 4-chloro phenyl triazole
With B7, the IC50 in assay [8] amounted to 25 µM; in assay [5], 11.3 µM; in assay [6], 11.5 µM.
